Consider nine molecules from article PMC12413468 (Communications Biology, 2025).

In assay [1] the target is T1, His6-tagged OSR1 CCT domain (human OSR1 433–527) (human, UniProt O95747 433-527). The assay is described as follows: fluorescence polarisation.
For assay [2], the target named is His6-tagged SPAK CCT domain (mouse SPAK 459–556) (mouse, UniProt Q9Z1W9 459-556). The assay is described as follows: fluorescence polarisation.
The target in assay [3] is T1, His6-tagged OSR1 CCT domain (human OSR1 …). Briefly: peptide or protein array.

Where no end group is shown, it is not given here. [ ]: non-standard residue; d: D form. pS = N[C@@H](COP(=O)(O)O)C(=O)O

T1 sequence (O95747 433-527): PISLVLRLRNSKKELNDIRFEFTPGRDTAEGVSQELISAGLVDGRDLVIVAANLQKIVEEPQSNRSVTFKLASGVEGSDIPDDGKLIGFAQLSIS

Regarding SAGHHFIVSPVPE [WNK1 peptide 1253–1265 with the arginines replaced by histidine-histidine], the “fold decrease in affinity against wild type” value in assay [1] and in assay [2] was roughly 7 fold throughout.

On to SAGKKFIVSPVPE [WNK1 peptide 1253–1265 with the arginines replaced by lysine-lysine], for which the Ki was determined as 16.3 µM in assay [1] and 4.2 µM in assay [2].

Consider SAGHAFIVSPVPE [WNK1 peptide 1253–1265 with the arginines replaced by histidine-alanine], for which the “fold decrease in affinity against wild type” value in assay [1] and in assay [2] was 11 fold each time.

With QLVGRFQVTSSKE [Wild-type human WNK4 peptide 1012–1024 (QLVGRFQVTSSKE)], the inhibition constant Ki was found to be 12.9 µM in assay [1] and 7.2 µM in assay [2].

QLVARFQVTSSKE [WNK4 peptide 1012–1024 with the −2 glycine changed to alanine (QLVARFQVTSSKE)]: the binding result in assay [1] and in assay [2] was “binds” throughout.

Regarding QLVSRFQVTSSKE [WNK4 peptide 1012–1024 with the −2 glycine changed to serine], the binding result in assay [1] and in assay [2] was “binds” throughout.

Regarding SAGRRFIV[pS]PVPE [WNK1 peptide 1253–1265 with phosphoserine at the +3 position], the “fold decrease in affinity against the unphosphorylated peptide” value in assay [1] and in assay [2] was roughly 2.5 fold each time.

Regarding H-SAGRRFIVSPVPE-OH [Wild-type human WNK1 peptide 1253–1265 (NH3+-SAGRRFIVSPVPE-COO-)], the inhibitory constant (Ki) came to 5.1 µM in assay [1] and 2.5 µM in assay [2].

As to Ac-QLVGRFQVTSSKE (also: covalently linked to the membrane) [Wild-type WNK4 1012–1024 base peptide on the peptide array], the binding result in assay [3] is listed as “binds”.

For orientation: Ki means the dissociation constant of the complex between target and ligand, obtained from inhibition or displacement. Low values mean tighter binding, high ones weaker binding.
